Results from patent US20250115681A1 (WESTLAKE UNIVERSITY, published 2025).
Where no end group is shown, it is not given here. [ ]: non-standard residue; d: D form. The star is where a group is joined. Biotin = O=C1N[C@H]2[C@H](CS[C@H]2CCCCC(=O)*)N1

Biological target: T1, AALPET*G peptide with N-terminal biotinylation
T1 construct: Synthetic sortase substrate peptide
T1 peptide: Biotin-AALPET[2‑hydroxyacetic acid]G
Assay: western blot of in vitro reaction product bands

B1: mgSrtA (Ca2+-dependent) (enzyme)
chain: KPHIDNYLHDKDKDEKIEQYDKNVKEQASKDKKQQAKPQIPKDKSKVAGYIEIPDADIKEPVYPGPATREQLNRGVSFAEENESLDDQNISIAGHTFIGRPNYQFTNLKAAKKGSMVYFKVGNETRKYKMTSIRNVKPTAVGVLDEQKGKDKQLTLITCDDLNRETGVWETRKILVATEVK
notes: Engineered variant of wild-type sortase A, expressed in E. coli BL21 (DE3) with an N-terminal 6xHis tag; also called Ca^2+-dependent mgSrtA; not shown: N-terminal 6xHis tag from the pET-28a backbone
- binding result: binds
